According to patent US20230380451A1, “MEANS AND METHODS TO DETOXIFY MYCOTOXINS” (priority 2020, published 2023):

What was measured:
[1] = Kinetic parameters of DON transformation (Michaelis-Menten fit); format: biochemical; settings: 200 nM enzyme, TS buffer pH 6.0, 1 mM NADPH
Method: (§1) To determine the transformation of DON to epi-THS by Akr I-III, described herein, the following assay was performed. An assay buffer was prepared containing 40 ppm DON, 1 mM NADPH in Teorell Stenhagen (TS) buffer, pH 6.0 (Östling and Virtama, Acta Physiologica Scandinavica, 1946, 11:4, 289-293). Tubes containing the assay buffer were transferred in a heating block at 30° C. The reaction was started by addition of Akr I-III to a final concentration of 200 nM in a final reaction volume of 200 μL. Samples were taken before reaction start, and 2, 5, 10, 15 and 20 min after reaction start. DON transformation reactions in these samples were stopped by mixing with absolute methanol at a 1:2 ratio, followed by a 1:100 dilution with 40% methanol. The concentrations of DON and epi-THS in the samples were determined with liquid chromatography-mass spectrometry (LC-MS) on a Sciex 5500 triple quadrupole mass spectrometer coupled to Agilent 1290 series UHPLC system, using the following MS parameters: Acquisition duration: 4 min; Scan Type: MRM (MRM); Polarity: Negative; Ion Source: Turbo Spray.
Kinetic parameters were determined by performing the DON transformation assay as described in Example 3. Akr I-III were used at a final concentration of 200 nM in Teorell Stenhagen (TS) buffer, pH 6.0 (Ostling and Virtama, Acta Physiologica Scandinavica, 1946, 11:4, 289-293) further containing 1 mM NADPH and DON at a concentration of either 3.38 μM, 33.78 μM, 135.14 μM, 270.27 μM or 1182.43 μM. The observed reaction rates and the corresponding DON concentrations were fitted to the Michaelis-Menten function used to describe enzyme kinetics. The fitting was done using the program SigmaPlot (Systat Software Inc.) to calculate the maximum DON transformation rate of Akr I-III in the assay (Vmax), the Michaelis constant (KM) and the turnover number (kcat). […].

[2] = Storage stability in storage buffer at different temperatures, residual DON transformation activity; format: biochemical; settings: for Relative DON transformation activity: storage buffer
Method: as §1
The storage stability of Akr I-III was tested by incubation of 5 μM enzyme solutions in storage buffer (50 mM Tris pH 9.0, 0.5M NaCl, 50% Glycerol), for 60 min in a thermocycler (Mastercycler, Eppendorf) set to gradient mode from 30° C. to 50° C. Throughout the incubation, samples were removed and placed on ice until DON transformation assays were performed as described in Example 3 to determine enzyme activities. The starting activity at time 0 min was set to 100% and the relative residual activities were determined throughout the incubation. Akr I retained more than 33% activity during 60 min in pH 6 at temperatures from 29.9° C. to 46.0° C. Akr III retained 15% to 90% activity during 20 min in pH 6 at temperatures from 29.9° C. to 40.7° C.

B1: Akr I: artificial amino acid sequence, variant of a wild type aldo-keto reductase (protein)
chain: MRTTEISQGLKVSNLCIGAGPLGGMPTAFGYDVSEERGIATVQAVFDSPINFMDTSSEYGDSEVRIGKVIREGRMPKGFVIATKADAEGDGTARRGDFSAKQVRASFELSLERLGLTHIDVYFLHDPEKFPFEHVMARGGAMEELLRLKDEGLVGLVGVAGGDVVEMARYVDTGNLDILLNYGRYTLLDRSADSLIDKASDAGMAFLNAGPYASGLLAAPRGGSAWYQYAPPNADALQAVDQLHELCESFDVSLRSVALQFSMRDPRITSTVVGLSRPERVRALLDDAAAEIPAELWDQLPAPLNLPWNSLA
modifications: ArkI
Vmax (maximum DON transformation rate) [1]: 8471 U/mg
kcat (turnover number) [1]: 5.08 s⁻¹
Km ([1]; substrate DON, read-out: KM (Michaelis constant)): 143 µM
retained activity ([2]; during 60 min in pH 6 at temperatures from 29.9° C. to 46.0° C.): more than 33%
Relative DON transformation activity ([2]; 29.9° C., 0 min (starting activity set to 100%)): 100.00%
Relative DON transformation activity ([2]; 29.9° C., 5 min): 121.5%
Relative DON transformation activity ([2]; 29.9° C., 10 min): 114.8%
Relative DON transformation activity ([2]; 29.9° C., 20 min): 118.9%
Relative DON transformation activity ([2]; 29.9° C., 35 min): 106.2%
Relative DON transformation activity ([2]; 29.9° C., 50 min): 70.1%
Relative DON transformation activity ([2]; 29.9° C., 60 min): 53.7%
Relative DON transformation activity ([2]; 35.3° C., 0 min (starting activity set to 100%)): 100.00%
Relative DON transformation activity ([2]; 35.3° C., 5 min): 132.8%
Relative DON transformation activity ([2]; 35.3° C., 10 min): 97.7%
Relative DON transformation activity ([2]; 35.3° C., 20 min): 101.5%
Relative DON transformation activity ([2]; 35.3° C., 35 min): 109.7%
Relative DON transformation activity ([2]; 35.3° C., 50 min): 84.6%
Relative DON transformation activity ([2]; 35.3° C., 60 min): 47.0%
Relative DON transformation activity ([2]; 37.9° C., 0 min (starting activity set to 100%)): 100.00%
Relative DON transformation activity ([2]; 37.9° C., 5 min): 130.1%
Relative DON transformation activity ([2]; 37.9° C., 10 min): 101.4%
Relative DON transformation activity ([2]; 37.9° C., 20 min): 110.1%
Relative DON transformation activity ([2]; 37.9° C., 35 min): 109.0%
Relative DON transformation activity ([2]; 37.9° C., 50 min): 77.0%
Relative DON transformation activity ([2]; 37.9° C., 60 min): 48.6%
Relative DON transformation activity ([2]; 40.7° C., 0 min (starting activity set to 100%)): 100.00%
Relative DON transformation activity ([2]; 40.7° C., 5 min): 130.2%
Relative DON transformation activity ([2]; 40.7° C., 10 min): 100.7%
Relative DON transformation activity ([2]; 40.7° C., 20 min): 60.5%
Relative DON transformation activity ([2]; 40.7° C., 35 min): 95.8%
Relative DON transformation activity ([2]; 40.7° C., 50 min): 76.1%
Relative DON transformation activity ([2]; 40.7° C., 60 min): 50.0%
Relative DON transformation activity ([2]; 43.4° C., 0 min (starting activity set to 100%)): 100.00%
Relative DON transformation activity ([2]; 43.4° C., 5 min): 133.6%
Relative DON transformation activity ([2]; 43.4° C., 10 min): 111.3%
Relative DON transformation activity ([2]; 43.4° C., 20 min): 79.1%
Relative DON transformation activity ([2]; 43.4° C., 35 min): 75.2%
Relative DON transformation activity ([2]; 43.4° C., 50 min): 60.2%
Relative DON transformation activity ([2]; 43.4° C., 60 min): 52.9%
Relative DON transformation activity ([2]; 46.0° C., 0 min (starting activity set to 100%)): 100.00%
Relative DON transformation activity ([2]; 46.0° C., 5 min): 125.9%
Relative DON transformation activity ([2]; 46.0° C., 10 min): 123.1%
Relative DON transformation activity ([2]; 46.0° C., 20 min): 83.4%
Relative DON transformation activity ([2]; 46.0° C., 35 min): 61.8%
Relative DON transformation activity ([2]; 46.0° C., 50 min): 3.0%
Relative DON transformation activity ([2]; 46.0° C., 60 min): 33.1%
Relative DON transformation activity ([2]; 50.8° C., 0 min (starting activity set to 100%)): 100.00%
Relative DON transformation activity ([2]; 50.8° C., 5 min): 118.6%
Relative DON transformation activity ([2]; 50.8° C., 10 min): 44.2%
Relative DON transformation activity ([2]; 50.8° C., 20 min): 16.3%
Relative DON transformation activity ([2]; 50.8° C., 35 min): 4.9%
Relative DON transformation activity ([2]; 50.8° C., 50 min): 7.5%
Relative DON transformation activity ([2]; 50.8° C., 60 min): 0%
